# Where a chain is given by its changes, count along the chain named.
# B1: PGEG-hAGT: an AGT containing the mutations Asn157Gly, Ser159Glu (Juillerat et al., Chem Biol 10:313-317, 2003) (protein, UniProt P16455 1-207, looked up, variant N157G S159E)
# Methylated-DNA--protein-cystei …: MDKDCEMKRTTLDSPLGKLELSGCEQGLHEIKLLGKGTSAADAVEVPAPAAVLGGPEPLMQCTAWLNAYFHQPEAIEEFPVPALHHPVFQQESFTRQVLWKLLKVVKFGEVISYQQLAALAGNPKAARAVGGAMRGNPVPILIPCHRVVCSSGAVGGYEGGLAVKEWLLAHEGHRLGKPGLGGSSGLAGAWLKGAGATSGSPPAGRN
# B2: Lys125Ala, Ala127Thr, Arg128Ala, Asn157Gly, Ser159Glu: hAGT mutant with the listed mutations, expressed as GST fusion (protein, UniProt P16455 1-207, looked up, variant K125A A127T R128A N157G S159E)
# Methylated-DNA--protein-cystei …: B1 Methylated-DNA--protein-cystei … with K125A, A127T, R128A
# modifications: GST fusion
# B3: AGT (Gly160Trp): Human AGT mutant Gly160Trp (Xu-Welliver et al.); expressed as AGT-NLS3 fusion (protein, UniProt P16455 1-207, looked up, variant G160W)
# Methylated-DNA--protein-cystei …: B1 Methylated-DNA--protein-cystei … with G157N, E159S, G160W
# modifications: NLS3 fusion
# Experiments:
# [1] = test system: oligonucleotide SEQ ID NO:2 (modified in position 14); assay: Reactivity against DNA-based substrates (BG-Cy3 assay with BG-modified oligonucleotide); assay type: biochemical; settings: 0.5 µM (or more) BG-modified oligonucleotide
# Experimental: The ability of wild type AGT or mutant AGT to react with alkylated DNA substrates is measured as the reaction of its inactivation by a synthetic oligonucleotide containing O^6-benzylguanine (SEQ ID NO:2, modified in position 14). Subsequently, the reactions are quenched by incubation with biotinylated O^6-alkylguanine. Samples are subjected to Western blotting and detection with streptavidin derivates to obtain kinetic constants for these substrates. Alternatively, the ability of wild type or mutant AGT to react with alkylated DNA substrates is measured via its labeling efficiency in competition with a fluorescent substrate of AGT. The reaction kinetics of AGT with BG-Cy3 (O^6-benzylguanine coupled to Cy3) is followed by fluorescence intensity measurements at various concentrations of a competing synthetic oligonucleotide containing O^6-benzylguanine (SEQ ID NO:2, modified in position 14).
# Reactivity against DNA-based substrates measured with a BG-Cy3 assay: BG-Cy3 is prepared by reacting the previously described O^6-(4-aminomethyl-benzyl)guanine (Keppler et al., NatureBiotechnol. 21:86-89, 2003) with the commercially available N-hydroxysuccinimide ester of Cy3, (Cy3-NHS, Amersham). The coupling reaction is performed at ambient temperature in N,N-dimethylformamide in the presence of 1 eq. of triethylamine. The BG-Cy3 conjugate is purified by reversed-phase HPLC on a C18-column by using linear gradients from 0.1% trifluoroacetic acid to acetonitrile. After solvent evaporation BG-Cy3 is dissolved in dimethyl sulfoxide and stored at −20° C. For measuring the reactivity with DNA-based substrates, a reaction mixture containing different concentrations (0 to 5 µM) of oligonucleotide SEQ ID NO:2 (modified in position 14), GST-AGT fusion protein at 0.2 µM and BG-Cy3 at […] in reaction buffer (50 mM HEPES, pH 7.2, 1 mM DTT, 200 mg/ml BSA) is incubated in microtiterplates. Fluorescence of the Cy3 derivative (excitation 519 nm, emission at 572 nm) is measured on a Spectramax Gemini plate reader (Molecular Devices).
# salmon sperm DNA = assay: DNA binding as inhibition by DNA of the reaction with BG-Cy3; settings: salmon sperm DNA 25 µg/ml
# Experimental: (§1) The interaction with DNA is e.g. quantified by assessing the amount of copurified DNA from E. coli extracts under conditions of low salt and absence of DNase. This is compared between parallel purifications of fusion proteins (e.g. fusions to GST) of wild type (human) and mutant AGT by spectroscopic methods (ratio of absorbance at 260 and 280 nm). Alternatively the interaction of AGT with DNA is measured as the inhibition of AGT reactivity with BG-Cy3 (O^6-(4-aminomethyl-benzyl)-guanine coupled to Cy3) as substrate in the presence of DNA. This approach takes advantage of a marked increase of fluorescence of the Cy3 fluorophore upon reaction of BG-Cy3 with AGT. The reaction kinetics of AGT with a Cy3-labeled benzylguanine derivative is followed by fluorescence intensity measurements over several hours at various concentrations of salmon sperm DNA.
# DNA binding: DNA binding is measured as inhibition by DNA of the reaction of AGT mutants with BG derivatives. The reaction rate of AGT mutants in a reaction mixture containing salmon sperm DNA (25 µg/ml) instead of oligonucleotide is measured with the BG-Cy3 assay. The reaction rate is determined by fitting the obtained data to a monoexponential increase to maximum.
# [2] = compared to wild type hAGT; literature; cited from earlier work
# [3] = Reactivity towards N^9-modified O^6-benzylguanine derivatives (preblocking, BG-Cy3 assay); assay type: biochemical; settings: 100 µM N^9-isobutyl-, N^9-propyl-, N^9-cyanomethyl-O^6-benzylguanine, 15 min
# Experimental: FIG. 3: Reactivity of AGT mutants with N^9-modified BG derivatives. 10 µM AGTM (grey bars) or PGEG-hAGT (black bars) were preblocked with 100 µM N^9-modified BG derivatives (see list below), and subsequently labeled with 20 µM BG-Cy3. After 1 h reaction time, fluorescence intensity (FI) indicated in arbitrary units [a.u.] at 595 nm is measured. The black bold line is set at the reading for condition 1 corresponding to background fluorescence of the fluorophore not attached to protein. Values above this line indicate slow or incomplete reaction with N^9-modified BG-derivative. • 1 Fluorescence of BG-Cy3 without protein; background fluorescence. • 2 Reaction with BG-Cy3; no preblocking, positive control. • 3 Reaction with BG-Cy3, preblocked with 100 µM BG. • 4 Reaction with BG-Cy3, preblocked with 100 µM N^9-isobutyl-O^6-benzylguanine. • 5 Reaction with BG-Cy3, preblocked with 100 µM N^9-propyl-O^6-benzylguanine. • 6 Reaction with BG-Cy3, preblocked with 100 µM N^9-cyanomethyl-O^6-benzylguanine.
# Reactivity of AGT towards N^9-modified O^6-benzylguanine derivatives: The experiment is based on the BG-Cy3 assay. Upon reaction of AGT with BG-Cy3, an increase of fluorescence emission intensity of Cy3 by a factor 2-3 can be observed. […]
# DNA = DNA binding in vitro (co-purified DNA, UV spectroscopy); set-up: species or system E. coli; settings: co-purified DNA; compared to wild type hAGT or PGEG-hAGT
# Experimental: as §1
# For comparing the DNA binding properties of the protein in vitro, the harvested cells are resuspended, and the GST fusion protein is purified following the same method but in a buffer containing 50 mM phosphate, 0.1 M NaCl, 1 mM DTT. In the dialysed samples, the amount of subsequently co-purified DNA is estimated by UV spectroscopy. Spectra are recorded using a Perkin Elmer Lambda 10. The content of DNA corresponds to the ratio of the extinctions at 280 and 260 nm. […]
# [4] = Activity assay with biotinylated O^6-benzylguanine (BG-Bt), Western blotting; assay type: biochemical; settings: statement in words
# Method in brief: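 Purified mutant GST-AGT (0.2 μM) reacted with 1 μM biotinylated O^6-benzylguanine in 50 mM HEPES pH 7.2, 1 mM DTT at room temperature. Time-point aliquots quenched with O^6-benzylguanine in SDS buffer. Biotinylated protein detected by Western blot with neutravidin-peroxidase, band intensity quantified.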
# [5] = Stability after reaction with BG-FL; assay type: physicochemical; settings: over 7 days
# Experimental: Stability before reaction is determined for the mutant AGT or for a mutant AGT fusion protein by incubating purified samples in buffered aqueous solution for up to two weeks at 4° C. and up to six months at −20° C. At several time points, aliquots are taken and concentration of reactive AGT is estimated as described by Juillerat et al., Chem Biol 10:313-317, 2003. Stability for wild type AGT and the AGT mutant after reaction with a labelled substrate and after subsequent separation from unreacted substrate is determined by quantifying the concentration of the label in the soluble fraction over up to two weeks at 4° C. and up to three months at −20° C.
# Stability after reaction: The vector pBAD/H is A (Invitrogen) is modified by cloning synthetic oligonucleotides (SEQ ID NO:29 and SEQ ID NO:30) between the NcoI and HindIII sites to include a 12×His-tag and SbfI and AscI cloning sites. The gene of AGTM is amplified with primers SEQ ID NO:31 and SEQ ID NO:32 and cloned between the SbfI/AscI sites into this vector. Wild type AGT and mutant AGT (Lys125Ala, Ala127Thr, Arg128Ala, Asn157Gly, Ser159Glu) are amplified with primers SEQ ID NO:31 and SEQ ID NO:33 and cloned into this vector. Protein expression is carried out in E. coli strain Top 10. An exponentially growing culture is induced with 0.2% arabinose, and the expression is carried out for 16 hours at 28° C. The cells are lysed by adding buffer to 10 ml/g containing 0.5 M NaCl, 80 mM imidazole, 1% Triton, 250 µM PMSF, 1 mM […]-mercaptoethanol, 5 mg/ml lysozyme, 20 µg/ml DNase and stirring for 45 min. […]
# The AGT proteins at 10 µM) are quantitatively reacted with fluorescein-modified O^6-benzyl-guanine (substance 5 of Juillerat et al, Chem Biol 10:313-317, 2003, BG-FL, 20 µM) and purified over a size exclusion column (Econopac 10 DG, Bio-Rad) and incubated for 7 days. […] The fluorescence of the supernatant is measured with a Victor2 fluorescence plate reader (Perkin Elmer, excitation/emission at 485/535 nm).
# CHO cells = assay: Selective labelling in cells after CPTG pre-incubation; assay type: cell-based; settings: 5 µM CPTG 10 min, then 5 µM fluorescent substance 4 20 min
# Source text: In a further experiment, the mutant AGTM as described in Example 6 is amplified with the primers SEQ ID NO:34 and SEQ ID NO:36 and cloned between the NheI and BgIII sites of the vector pEGFP-Nuc. The […]-galactosidase gene is amplified with the primers SEQ ID NO:37 and SEQ ID NO:38 and subcloned into this vector via BgIII/BamHI to result in a vector with an AGTM-[…]-Gal fusion gene. The hAGT gene is amplified by the principle described under Example 1 with the primers SEQ ID NO:39, SEQ ID NO:40, SEQ ID NO:34, and SEQ ID NO:35 and cloned via NheI/BgIII into pEGFP-Nuc to result in an AGT-NLS3 fusion gene coding for the mutation Gly160Trp. After transient expression of both AGT mutants in parallel, the cells are incubated with 5 µM CPTG for 10 min and subsequently with 5 µM of substance 4 of Juillerat et al., Chem Biol 10:313-317, 2003, for 20 min. The cells are washed and imaged as described under Example 1.
Molecule,activity in presence of BG-modified oligonucleotide [1],reduction of reaction rate to BG-Cy3 in presence of DNA (salmon sperm DNA),activity against benzylguanine derivatives (factor) [2],extent of reaction with N^9-modified BG derivatives [3],DNA binding (DNA),activity towards O^6-benzylguanine substrates [4],loss of soluble fluorescent protein [5],reaction with CPTG inside cells (CHO cells)
B1,less than 3%,5 fold,approximately 20,reacts efficiently,,,,
B2,,,,,at least ten times reduced DNA binding,retains activity,about 60%,
B3,,,somewhat more reactive,,,,,efficiently reacts with CPTG inside cells
